Patent US20130011378A1, “Stable formulations of a hyaluronan-degrading enzyme” (priority 2011, published 2013)

Assay: RP-HPLC: insulin apparent solubility / percent recovery
Conditions: 7 days at 2-8° C.
Description: Apparent solubility was measured as the percent insulin recovery as compared to the initial formulations/conditions.
Samples were prepared by withdrawing 100 μL from each vial at every time point and centrifuging prior to loading. Samples were stored in an autosampler at 4° C. prior to use, and were considered stable for 3 days after preparation. All samples were tested in duplicate.
For insulin, 20 μL was injected for each HPLC run.
To determine the apparent solubility, the peak area of insulin/insulin analog main peak and desamido peak were integrated and combined together to calculate the percentage relative to the standards. […] The data were processed using Design-Expert® 7.0 (StatEase) and the “historical data” feature. Insulin percent purity was expressed as the percent of main insulin versus all insulin species.

Insulin Aspart
Solubility of Insulin Aspart, % remaining of the original concentration (0.2% methylparaben + […] m-cresol, pH 6.6, NaCl 50 mM): 57.7% | Solubility of Insulin Aspart, % remaining of the original concentration (0.2% methylparaben + […] m-cresol, pH 6.6, NaCl 80 mM): 32.1% | Solubility of Insulin Aspart, % remaining of the original concentration (0.2% methylparaben + […] m-cresol, pH 6.6, NaCl 110 mM): 21.1% | Solubility of Insulin Aspart, % remaining of the original concentration (0.2% methylparaben + […] m-cresol, pH 6.6, NaCl 140 mM): 14.7% | Solubility of Insulin Aspart, % remaining of the original concentration (0.2% methylparaben + […] m-cresol, pH 6.8, NaCl 50 mM): 97.2% | Solubility of Insulin Aspart, % remaining of the original concentration (0.2% methylparaben + […] m-cresol, pH 6.8, NaCl 80 mM): 84.1% | Solubility of Insulin Aspart, % remaining of the original concentration (0.2% methylparaben + […] m-cresol, pH 6.8, NaCl 110 mM): 54.2% | Solubility of Insulin Aspart, % remaining of the original concentration (0.2% methylparaben + […] m-cresol, pH 6.8, NaCl 140 mM): 32.2% | Solubility of Insulin Aspart, % remaining of the original concentration (0.2% methylparaben + […] m-cresol, pH 7.0, NaCl 50 mM): 98.7% | Solubility of Insulin Aspart, % remaining of the original concentration (0.2% methylparaben + […] m-cresol, pH 7.0, NaCl 80 mM): 100.2% | Solubility of Insulin Aspart, % remaining of the original concentration (0.2% methylparaben + […] m-cresol, pH 7.0, NaCl 110 mM): 96.3% | Solubility of Insulin Aspart, % remaining of the original concentration (0.2% methylparaben + […] m-cresol, pH 7.0, NaCl 140 mM): 67.9% | Solubility of Insulin Aspart, % remaining of the original concentration (0.2% methylparaben + […] m-cresol, pH 7.2, NaCl 50 mM): 99.0% | Solubility of Insulin Aspart, % remaining of the original concentration (0.2% methylparaben + […] m-cresol, pH 7.2, NaCl 80 mM): 100.2% | Solubility of Insulin Aspart, % remaining of the original concentration (0.2% methylparaben + […] m-cresol, pH 7.2, NaCl 110 mM): 99.5% | Solubility of Insulin Aspart, % remaining of the original concentration (0.2% methylparaben + […] m-cresol, pH 7.2, NaCl 140 mM): 101.6% | Solubility of Insulin Aspart, % remaining of the original concentration (0.2% methylparaben + […] m-cresol, pH 7.4, NaCl 50 mM): 99.1% | Solubility of Insulin Aspart, % remaining of the original concentration (0.2% methylparaben + […] m-cresol, pH 7.4, NaCl 80 mM): 100.5% | Solubility of Insulin Aspart, % remaining of the original concentration (0.2% methylparaben + […] m-cresol, pH 7.4, NaCl 110 mM): 99.6% | Solubility of Insulin Aspart, % remaining of the original concentration (0.2% methylparaben + […] m-cresol, pH 7.4, NaCl 140 mM): 99.6% | Solubility of Insulin Aspart, % remaining of the original concentration (0.2% methylparaben + […] m-cresol, pH 7.6, NaCl 50 mM): 99.3% | Solubility of Insulin Aspart, % remaining of the original concentration (0.2% methylparaben + […] m-cresol, pH 7.6, NaCl 80 mM): 100.6% | Solubility of Insulin Aspart, % remaining of the original concentration (0.2% methylparaben + […] m-cresol, pH 7.6, NaCl 110 mM): 99.8% | Solubility of Insulin Aspart, % remaining of the original concentration (0.2% methylparaben + […] m-cresol, pH 7.6, NaCl 140 mM): 99.8% | Solubility of Insulin Aspart, % remaining of the original concentration (0.2% phenol + […] m-cresol, pH 6.6, NaCl 50 mM): 91.8% | Solubility of Insulin Aspart, % remaining of the original concentration (0.2% phenol + […] m-cresol, pH 6.6, NaCl 80 mM): 59.2% | Solubility of Insulin Aspart, % remaining of the original concentration (0.2% phenol + […] m-cresol, pH 6.6, NaCl 110 mM): 58.0% | Solubility of Insulin Aspart, % remaining of the original concentration (0.2% phenol + […] m-cresol, pH 6.6, NaCl 140 mM): 39.3% | Solubility of Insulin Aspart, % remaining of the original concentration (0.2% phenol + […] m-cresol, pH 6.8, NaCl 50 mM): 98.8% | Solubility of Insulin Aspart, % remaining of the original concentration (0.2% phenol + […] m-cresol, pH 6.8, NaCl 80 mM): 91.8% | Solubility of Insulin Aspart, % remaining of the original concentration (0.2% phenol + […] m-cresol, pH 6.8, NaCl 110 mM): 72.8% | Solubility of Insulin Aspart, % remaining of the original concentration (0.2% phenol + […] m-cresol, pH 6.8, NaCl 140 mM): 50.9% | Solubility of Insulin Aspart, % remaining of the original concentration (0.2% phenol + […] m-cresol, pH 7.0, NaCl 50 mM): 99.1% | Solubility of Insulin Aspart, % remaining of the original concentration (0.2% phenol + […] m-cresol, pH 7.0, NaCl 80 mM): 100.6% | Solubility of Insulin Aspart, % remaining of the original concentration (0.2% phenol + […] m-cresol, pH 7.0, NaCl 110 mM): 99.9% | Solubility of Insulin Aspart, % remaining of the original concentration (0.2% phenol + […] m-cresol, pH 7.0, NaCl 140 mM): 88.9% | Solubility of Insulin Aspart, % remaining of the original concentration (0.2% phenol + […] m-cresol, pH 7.2, NaCl 50 mM): 99.1% | Solubility of Insulin Aspart, % remaining of the original concentration (0.2% phenol + […] m-cresol, pH 7.2, NaCl 80 mM): 100.5% | Solubility of Insulin Aspart, % remaining of the original concentration (0.2% phenol + […] m-cresol, pH 7.2, NaCl 110 mM): 100.0% | Solubility of Insulin Aspart, % remaining of the original concentration (0.2% phenol + […] m-cresol, pH 7.2, NaCl 140 mM): 99.7% | Solubility of Insulin Aspart, % remaining of the original concentration (0.2% phenol + […] m-cresol, pH 7.4, NaCl 50 mM): 99.2% | Solubility of Insulin Aspart, % remaining of the original concentration (0.2% phenol + […] m-cresol, pH 7.4, NaCl 80 mM): 100.6% | Solubility of Insulin Aspart, % remaining of the original concentration (0.2% phenol + […] m-cresol, pH 7.4, NaCl 110 mM): 100.0% | Solubility of Insulin Aspart, % remaining of the original concentration (0.2% phenol + […] m-cresol, pH 7.4, NaCl 140 mM): 99.7% | Solubility of Insulin Aspart, % remaining of the original concentration (0.2% phenol + […] m-cresol, pH 7.6, NaCl 50 mM): 99.2% | Solubility of Insulin Aspart, % remaining of the original concentration (0.2% phenol + […] m-cresol, pH 7.6, NaCl 80 mM): 100.8% | Solubility of Insulin Aspart, % remaining of the original concentration (0.2% phenol + […] m-cresol, pH 7.6, NaCl 110 mM): 100.2% | Solubility of Insulin Aspart, % remaining of the original concentration (0.2% phenol + […] m-cresol, pH 7.6, NaCl 140 mM): 99.8% | Solubility of Insulin Aspart, % remaining of the original concentration ([…] phenol + […] m-cresol, pH 6.6, NaCl 50 mM): 97.9% | Solubility of Insulin Aspart, % remaining of the original concentration ([…] phenol + […] m-cresol, pH 6.6, NaCl 80 mM): 86.3% | Solubility of Insulin Aspart, % remaining of the original concentration ([…] phenol + […] m-cresol, pH 6.6, NaCl 110 mM): 54.4% | Solubility of Insulin Aspart, % remaining of the original concentration ([…] phenol + […] m-cresol, pH 6.6, NaCl 140 mM): 38.3% | Solubility of Insulin Aspart, % remaining of the original concentration ([…] phenol + […] m-cresol, pH 6.8, NaCl 50 mM): 99.8% | Solubility of Insulin Aspart, % remaining of the original concentration ([…] phenol + […] m-cresol, pH 6.8, NaCl 80 mM): 97.9% | Solubility of Insulin Aspart, % remaining of the original concentration ([…] phenol + […] m-cresol, pH 6.8, NaCl 110 mM): 97.5% | Solubility of Insulin Aspart, % remaining of the original concentration ([…] phenol + […] m-cresol, pH 6.8, NaCl 140 mM): 60.5% | Solubility of Insulin Aspart, % remaining of the original concentration ([…] phenol + […] m-cresol, pH 7.0, NaCl 50 mM): 99.7% | Solubility of Insulin Aspart, % remaining of the original concentration ([…] phenol + […] m-cresol, pH 7.0, NaCl 80 mM): 99.3% | Solubility of Insulin Aspart, % remaining of the original concentration ([…] phenol + […] m-cresol, pH 7.0, NaCl 110 mM): 99.3% | Solubility of Insulin Aspart, % remaining of the original concentration ([…] phenol + […] m-cresol, pH 7.0, NaCl 140 mM): 100.2% | Solubility of Insulin Aspart, % remaining of the original concentration ([…] phenol + […] m-cresol, pH 7.2, NaCl 50 mM): 99.1% | Solubility of Insulin Aspart, % remaining of the original concentration ([…] phenol + […] m-cresol, pH 7.2, NaCl 80 mM): 99.2% | Solubility of Insulin Aspart, % remaining of the original concentration ([…] phenol + […] m-cresol, pH 7.2, NaCl 110 mM): 99.2% | Solubility of Insulin Aspart, % remaining of the original concentration ([…] phenol + […] m-cresol, pH 7.2, NaCl 140 mM): 101.1% | Solubility of Insulin Aspart, % remaining of the original concentration ([…] phenol + […] m-cresol, pH 7.4, NaCl 50 mM): 100.0% | Solubility of Insulin Aspart, % remaining of the original concentration ([…] phenol + […] m-cresol, pH 7.4, NaCl 80 mM): 99.6% | Solubility of Insulin Aspart, % remaining of the original concentration ([…] phenol + […] m-cresol, pH 7.4, NaCl 110 mM): 99.5% | Solubility of Insulin Aspart, % remaining of the original concentration ([…] phenol + […] m-cresol, pH 7.4, NaCl 140 mM): 101.1% | Solubility of Insulin Aspart, % remaining of the original concentration ([…] phenol + […] m-cresol, pH 7.6, NaCl 50 mM): 100.1% | Solubility of Insulin Aspart, % remaining of the original concentration ([…] phenol + […] m-cresol, pH 7.6, NaCl 80 mM): 99.7% | Solubility of Insulin Aspart, % remaining of the original concentration ([…] phenol + […] m-cresol, pH 7.6, NaCl 110 mM): 99.4% | Solubility of Insulin Aspart, % remaining of the original concentration ([…] phenol + […] m-cresol, pH 7.6, NaCl 140 mM): 101.1%
